Here are results for twelve sequences from a protein production outcome set (Wang et al. 2014).

The data set is described as follows: label from the status in PepcDB records.
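Also: failed if final PepcDB status was selected cloned or expressed and not failed if soluble or beyond.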

As to “MKPAKVSLLHRLLQCLKQCVDCNTVNRFTAINIFVNILLISAVISFPYSAAAHGATQSGDQYSSFEELERNEDPASYRITEKNARVPMLIMAIHGGGIEPGTSEIANEVSKNYSLYLFEGLKSSGNTDLHITSTRFDEPAALAITASHQYVMSLHGYYSEDRDIKVGGTDRAKIRILVDELNRSGFAAEMLGTDDKYAGTHPNNIANKSLSGLSIQLEMSTGFRKSLFDRFTLKDRAATQNETFYRFTKLLTDFIHENYEEDGGDFPSAKIKHPLQV”, the protein production entry was “failed”.

Turning to “MKPALHTVTSAPALPAYVATGNECALFEHAWRHQLPVLLKGPTGCGKTRFVAHMAARLGLPLHTVACHDDLTAADLTGRYLLKGGDTVWTDGPLTRAVREGGICYLDEVVEARKDVTVVLHPLTDDRRILPLERTGEELAAPKSFMLVVSYNPGYQTLLKALKPSTRQRFVAIEFGFLAPEQEIAVVSAESGLPPDRVRPLVALAGRLRALRGHDLEEGVSTRLVVYCATLIAAGTPIADAVLAGMIEPLTDDSDVKAALLDVARAVIG”, the protein production result is listed as “failed”.

Turning to “MKPARAQGSIMLLVDVYLDKSPIQGIGVFAKHHIPMGTLIWKLDPRFDRIIDVETYEGESGPVKNYLDRYSYPDRRDPAYIVFEADDARYMNHDDEPNCDVSSPEETYALRDIAPGEELTCNYNHFFEAGFDFLGDRHL”, the protein production entry is reported as “failed”.

Consider “MKPENKIPVLTRLSDEMTAVVNFQQPGLPPWPADGDIETQRQYYLLERRFWNADAPSMTTRTCAVPTPYGDVTTRLYSPQPTSQATLYYLHGGGFILGNLDTHDRIMRLLARYTGCTVIGIDYSLSPQARYPQAIEETVAVCSYFSQHADEYSLNVEKIGFAGDSAGAMLALASALWLRDKHIRCGNVIAILLWYGLYGLQDSVSRRLFGGAWDGLTREDLDMYEKAYLRNDEDRESPWYCLFNNDLTRDVPPCFIASAEFDPLIDDSRLLHQTLQAHQQPCEYKMYPGTLHAFLHYSRMMTIADDALQDGARFFMARMKTPR”, for which the protein production result is given as “not failed”.

On to “MKPICIIPARSGSKGLPDKNMLFLSGKPMIFHTIDAAIESGMFDKKDIFVSTDSELYREICLERGISVVMRKPELSTDQATSYDMLKDFLSDYEDNQEFVLLQVTSPLRKSWHIKEAMEYYSSHDVDNVVSFSEVEKHPSLFTTLSDEGYAIDMVGADKGYRRQDLQPLYYPNGAIFISNKETYLREKSFFTSRTYAYQMAKEFSLDVDTRDDFIHVIGHLFFDYAIREKENKVFYKEGYSRLFNREASKIILGDSKTISTSLESYHNYSQGGVTLATMLENLPNFLTANVTEAFVSIGVNDLITGYSVEEIFSNFQKLYSLLAENKIKMRLTTIAYTLFRETVNNADIEKINQWLTEFCYQNQIPLLDINRFLSKDGNLNYHLTSDGLHFTQEANDLLQSQYQLFVDEVKTLLEHHHHHH”, for which the protein production entry is “not failed”.

For the sequence “MKPIVIKRDGSKAPFNRDRIQAAVESAAEHADQEIAIYALNVALAVELKLRDYDEVHITEIQTLVENELMQGPYKALARSYIEYRHDRDVAREKQSK”, the protein production entry is recorded as “failed”.

Turning to “MKPKSMKEKLVKDMMSILNLRIKMIDVNGLLKELDDALDKVVAKKEPESFLKPIISPIEDYQKSVRQIQAQFTDAPKFNEEGAYPQFLSCGLLEIKGKNGASMEFCLPKVYPFPPKSLYIEHEKDGQFLREMLMRLLSSAPLVQLEVILVDALSLGGIFNLARRLLHKDNDFIYQQRILTESKEIEEALKHLYEYLKVNLQEKLAGYKDFAHYNEEKKDRLPLKALFLSGVDALSQNALYYLEKIMRFGSKNGVLSFVNLESEKNNKSTEDLKRYAECFKDRTSFERLKYLNIEVINDHGIQSKHMKDFADKIKAYYEKKKAVKRELKDLQKDEKFWTESSQFKVSVPVGWDINHKEVCFEIGNEQNHTLICGRSGSGKSNFLHVLIQNLAFYYAPNEVQLFLLDYKEGVEFNAYTDPNILEHARLVSVASSVGYGMSFLNWLCKEMQERANLFKQFNVKDLSDYRKHGEIPRLIVVIDEFQVLFSDNKSTKAVEGHLNTLLKKGRSYGVHLILATQTMRGTDINRSIMAQIANRIALSMDAEDSNSILGDDAACELVRPEGIFNNNGGHQKHHTKMSIPKAPDDFKPFIKKIHRDFNQRNLVPVEHKIYNGEKPLEMPNTLKANEMRLHLGKEADYEQKDLMVGFENSESHLLVVSQDLSARIALMKLFAQNFKTANKELLFYNAEKRLARELDELKKHHITPMQGPLGSVLDTAMNPNSVLVIDNLNEAKELHDKIGVEKLRSFLEKATDNEQYCIIFAHDLKQIQANYDLSKLKELLNNHFKQRLAFRCNGENLSAIKKDLPLLTNELNALFVELSKDSHTEFRPFSL”, the protein production entry is given as “failed”.

Turning to “MKPPADNNKEGAESHKLESESKPIWKSMSMFLVPLLLSNVLQSVGQLFGMVVVGRWLGVNDLAAISAFFPLFFLLVSFVIGIGSGSSILIGQAFGAKNEDRLKAIVGTTLTFTFIIGVLLAIIGSIFAMDIMRLMGTPENIIEISVHYARILFISMPVLFLYFAYTTFMRGTGDSKTPFYFLIVSTALNMILLPILIFGWLGAPKLDVYGAAYASVISTVITFIVMLVYLKKKNHPLQLDGTVRKYLRMDGELLKLLLRLGIPASINMILVSLSEIAVIAFVNRYGSDATAAYGVVNQVASYVQMPAVSLGITVSIFAAQSIGANQFDRLQKVVKAGIIMNYVIGGVLISLIYVFSRDILSLFLTSQTTIEIAHSLVMITLWSYLIFGHAQIISATMRASGTVLWPTVIGVVSIWLVEVPVAYYLSYHTSLGIEGIWIGYPAAFIVSLILQYAYYKLSWQKKRITRLVS”, the protein production result is reported as “not failed”.

On to “MKPRRKSALLWGAVAALSFLVLHQGYLLAGGAFLGVGPVAAVTVAVFVGGAAVSYYAEGRFGLFGWRR”, for which the protein production entry is recorded as “failed”.

As to “MKQEEDKFTGLPENAFRELKAGEVYNPLMSPSKNYPEVNFWSVTWGIAMAILFSAAAAYLGLKVGQVFEAAIPIAIIAVGVSGAAKRKNALGENVIIQSIGACSGVIVAGAIFTLPALYILQVKYPEMTVSFMQVFISSLLGGVLGILFLIPFRKYFVSDMHGKYPFPEATATTQVLVSGEKSGSQAKPLLMAGMIGGLYDFIVATFGWWNENFTTRVCGAGEMLAEKAKLVFKVNTGAAVLGLGYIVGLKYASIICAGSLAVWWIIIPGMSAIWGDSVLNAWNPEITSTVGMMSPEEIFKYYAKSIGIGGIAMAGVIGIIRSWGIIKSAVGLAAKEMGGKGNVEKNIVRTQRDLSMKIIAIGSILTLILIVLFFYFDIMQGNIVHTLVAIALVAGISFLFTTVAANAIAIVGTNPVSGMTLMTLILASVVMVAVGLKGPSGMVAALVMGGVVCTALSMAGGFITDLKIGYWLGSTPAKQETWKFLGTIVSAATVGGVMIILNKTYGFTSGALAAPQANAMAAVIEPLMSGVGAPWLLYGIGAILAIVLTFFKIPALAFALGMFIPLELNVPLVVGGAVNWYVTSRSKDTALNTERGEKGTLLASGFIAGGALMGVVSAAMRFGGINLVNEAWLNNTWSEVLALGAYALLILYFIKASMKVK”, the protein production result is given as “failed”.

Turning to “MKQEETKRYESFKREFFHWFLAFSGDEPFSVAAGELLMMLKEELALQQAVLYLFDPSCDAFCPEAAAGRMPAAESIVAEEKQEIVVIDDGGPCIVVRLFFLLSEETRAMLELMYGKERHIDREWLKVLRTDLSSLFRKLSALSQRTSEENRYEQLHRFAAKIHSTMQIDDVLEEIICTLQNVYPAFTYHLLLSHDNHVCGNLPIKTLALDESEGQPAALRAFLTGQVQCEETAAPPRSVLYAPIKGVQAVYGVIQIIAPYAAPFPKREINFISLLAGTAGRALENAKLYEQSRRLVADLQLINDTMRQLNARPRLCEAIEYMVSQIKESFGADEVGFFLFADGKRELLRGSTPFFYNDLSALYVEWVEARLLSGNDILFAGDVRTSDFGPFRSIMAAPMMQNKEMKGVCIVLAYETYRFTFEMFKLLQSLVQHSTLAFMNAILREELEKLVVTDYLTKLYTRRYLDEAIQKSMEEDALGSFLLIDIDNFKQINDTYGHQTGDDVLVQVAKMIRTNIRDGDIAARWGGEELAVYLPKVALLDAIAIARRIVEKVREHTVPSVTVSCGLSSWRRHDHDDAEQLFKRADAALYMAKETGKNAIFVHDGDHLYRG”, the protein production result is reported as “failed”.

As to “MKQEETLTKVKVAEVTHSIFYAPLYVAESKGFFKEEGLDVDVNTTWGGDKTMTSLLSNGSDIALVGSETSIYVEAQGAKDPVINFAQLTQTDGTFLVAREDVEHFDWDQLKGKTFLGQRKGGMPQMVGEYVLNKHKIDPHKDIDLIQNIDFANIANAFASGTGEYVQLFEPQLLSLRKKASAISWLHSEKNQERFLIRLLWRNKAILEHHHHHH”, the protein production entry is listed as “failed”.
